This passage reports EC50 (read off the curve) and Kd results from patent US20160297851A1, “BROAD SPECTRUM […]” (priority 2012, published 2016).

Assay [1] has as its target full-length P29S mutant of S. aureus SPase (His6x-tagged SpsB(P29S)) (Staphylococcus aureus). The assay can be described thus: steady-state increase of arylomycin fluorescence (ex 320 nm, em 410 nm) on binding full-length S. aureus SPase P29S.
For assay [2] the target is unchanged. Kind of assay: steady-state binding by increase of arylomycin fluorescence; full-length His-tagged S. aureus SPase, buffer with 10% glycerol.
For assay [3], the target named is full-length wild type S. aureus SPase (His6x-tagged SpsB) (Staphylococcus aureus). The description is as above.
The target is the same in assay [4]. The assay can be described thus: steady-state increase of arylomycin fluorescence (ex 320 nm, em 410 nm) on binding full-length wild type S. aureus SPase.
Assay [5] addresses P84S variant of the truncated E. coli SPase (Δ2-75) (Escherichia coli) (UniProt P00803). Kind of assay: steady-state binding by increase of arylomycin fluorescence (ex 320 nm, em 410 nm); truncated SPase in n-octyl-β-glucopyranoside micelles.
Assay [6] has the same target. Kind of assay: steady-state increase of arylomycin fluorescence (ex 320 nm, em 410 nm) on binding the soluble N-terminally truncated (delta 2-75) E. coli SPase P84S.

In the case of arylomycin C16 (peptide), the results for the EC50 (read off the curve) in assay [1], in assay [4] and in assay [6] were 0.2 µM, 2 µM and 0.09 µM, respectively. Also, the Kd (commonly the equilibrium constant for the complex coming apart) in assay [2] turned out to be 0.13 µM; in assay [3] it was 1.28 µM; in assay [5], 0.039 µM.
